Measured values as given in article PMC10145227.

Key:
[1] = fibrin plate lysis area, t-PA standard; conditions: control: rDSPAα1
[2] = S-2765 activity after 1 h at 30-90 °C or pH 3-12; conditions: control: rDSPAα1
[3] = nanoDSF, F350/F330 ratio and scattering; conditions: control: rDSPAα1
[4] = purified protein yield from P. pastoris; conditions: control: rDSPAα1
[5] = S-2765 hydrolysis kinetics, fibrin cofactor; conditions: control: rDSPAα1
[6] = S-2765 hydrolysis kinetics, fibrinogen cofactor; conditions: control: rDSPAα1
[7] = ratio of S-2765 Kcat/Km, fibrin/fibrinogen; conditions: control: rDSPAα1
[8] = S-2765 hydrolysis kinetics, no cofactor; conditions: glycan lost; control: rDSPAα1
[9] = H&E thrombus section score (higher is worse); conditions: control: rDSPAα1
[10] = ELISA time course after dosing; conditions: control: rDSPAα1
[11] = recanalization rate, FeCl3 carotid thrombosis; conditions: control: rDSPAα1
[12] = plasma plasminogen ELISA, slope versus time; conditions: control: rDSPAα1
[13] = ELISA, slope of concentration versus time; conditions: control: rDSPAα1
[14] = thrombus length, dry and wet weight; conditions: control: rDSPAα1
[15] = hindlimb vein bleeding time after dosing; conditions: control: rDSPAα1
[16] = blood routine examination, 1 h after dosing; conditions: glycan gained; control: rDSPAα1

B1: DSPAα1: ANGlyα1 + U (protein)
parent chain: MVNTMKTKLLCVLLLCGAVFSLPRQETYRQLARGSRAYGVACKDEITQMTYRRQESWLRPEVRSKRVEHCQCDRGQARCHTVPVNSCSEPRCFNGGTCWQAVYFSDFVCQCPAGYTGKRCEVDTRATCYEGQGVTYRGTWSTAESRVECINWNSSLLTRRTYNGRMPDAFNLGLGNHNYCRNPNGAPKPWCYVIKAGKFTSESCSVPVCSKATCGLRKYKEPQLHSTGGLFTDITSHPWQAAIFAQNRRSSGERFLCGGILISSCWVLTAAHCFQESYLPDQLKVVLGRTYRVKPGEEEQTFKVKKYIVHKEFDDDTYNNDIALLQLKSDSPQCAQESDSVRAICLPEANLQLPDWTECELSGYGKHKSSSPFYSEQLKEGHVRLYPSSRCAPKFLFNKTVTNNMLCAGDTRSGEIYPNVHDACQGDSGGPLVCMNDNHMTLLGIISWGVGCGEKDVPGVYTKVTNYLGWIRDNMHL
With B1 the “enzymatic_activity, percent_of_wt” value ([1]; glycan gained) was “decreases”, the stability_or_folding ([2]; glycan gained) was “no change” and the stability_or_folding ([3]; glycan gained) was “no change”. The “expression_or_secretion, percent_of_wt” value ([4]; glycan gained) was “no change”.

B2: DSPAα1: QNGlyα1-1 (protein)
parent chain: MVNTMKTKLLCVLLLCGAVFSLPRQETYRQLARGSRAYGVACKDEITQMTYRRQESWLRPEVRSKRVEHCQCDRGQARCHTVPVNSCSEPRCFNGGTCWQAVYFSDFVCQCPAGYTGKRCEVDTRATCYEGQGVTYRGTWSTAESRVECINWNSSLLTRRTYNGRMPDAFNLGLGNHNYCRNPNGAPKPWCYVIKAGKFTSESCSVPVCSKATCGLRKYKEPQLHSTGGLFTDITSHPWQAAIFAQNRRSSGERFLCGGILISSCWVLTAAHCFQESYLPDQLKVVLGRTYRVKPGEEEQTFKVKKYIVHKEFDDDTYNNDIALLQLKSDSPQCAQESDSVRAICLPEANLQLPDWTECELSGYGKHKSSSPFYSEQLKEGHVRLYPSSRCAPKFLFNKTVTNNMLCAGDTRSGEIYPNVHDACQGDSGGPLVCMNDNHMTLLGIISWGVGCGEKDVPGVYTKVTNYLGWIRDNMHL
With B2 the “enzymatic_activity, percent_of_wt” value ([1]; glycan lost) was “decreases”, the “enzymatic_activity, kcat_Km” value ([5]; glycan lost) was “decreases, 333.760 ± 20.680 vs 5883.440 ± 983.570” and the “enzymatic_activity, kcat_Km” value ([6]; glycan lost) was “no change, 292.580 ± 1.780 vs 282.240 ± 13.070”. For the same protein, the stability_or_folding ([2]; glycan lost) was “no change”, the “other: fibrin selectivity, other: ratio Fbn/Fbg” value ([7]; glycan lost) was “decreases, 1.100 vs 20.800” and the stability_or_folding ([3]; glycan lost) was “no change”. For the same protein, the “expression_or_secretion, percent_of_wt” value ([4]; glycan lost) was “decreases” and the “enzymatic_activity, kcat_Km” value [8] was “no change, 38.800 ± 0.780 vs 34.830 ± 2.350”.

B3: DSPAα1: QNGlyα1 (protein)
parent chain: MVNTMKTKLLCVLLLCGAVFSLPRQETYRQLARGSRAYGVACKDEITQMTYRRQESWLRPEVRSKRVEHCQCDRGQARCHTVPVNSCSEPRCFNGGTCWQAVYFSDFVCQCPAGYTGKRCEVDTRATCYEGQGVTYRGTWSTAESRVECINWNSSLLTRRTYNGRMPDAFNLGLGNHNYCRNPNGAPKPWCYVIKAGKFTSESCSVPVCSKATCGLRKYKEPQLHSTGGLFTDITSHPWQAAIFAQNRRSSGERFLCGGILISSCWVLTAAHCFQESYLPDQLKVVLGRTYRVKPGEEEQTFKVKKYIVHKEFDDDTYNNDIALLQLKSDSPQCAQESDSVRAICLPEANLQLPDWTECELSGYGKHKSSSPFYSEQLKEGHVRLYPSSRCAPKFLFNKTVTNNMLCAGDTRSGEIYPNVHDACQGDSGGPLVCMNDNHMTLLGIISWGVGCGEKDVPGVYTKVTNYLGWIRDNMHL
With B3 the “enzymatic_activity, percent_of_wt” value ([1]; glycan lost) was “abolishes”, the “other: thrombolytic efficacy in rats, other: total score” value ([9]; glycan lost) was “decreases, 103.333 ± 0.816 vs 61.667 ± 1.966” and the stability_or_folding ([2]; glycan lost) was “no change”. The “other: plasma D-dimer course in rats” value ([10]; glycan lost) was “increases”, the “other: plasma α2-AP concentration in rats” value ([10]; glycan lost) was “no change” and the “other: fibrin selectivity, other: ratio Fbn/Fbg” value ([7]; glycan lost) was “decreases, 0.700 vs 20.800”. For the same protein, the “other: thrombolytic efficacy in rats, other: recanalized rats” value ([11]; glycan lost) was “abolishes, 0/8 vs 4/8”, the “other: plasminogen activation in rats” value ([12]; glycan lost) was “abolishes” and the “other: plasma FDP rise in rats” value ([13]; glycan lost) was “decreases”. For the same protein, the stability_or_folding ([3]; glycan lost) was “no change”, the “other: thrombolytic efficacy in rats” value ([14]; glycan lost) was “abolishes” and the “expression_or_secretion, percent_of_wt” value ([4]; glycan lost) was “decreases”. The “other: bleeding time in rats” value ([15]; glycan lost) was “increases”.

B4: DSPAα1: ANGlyα1 + 2 (protein)
parent chain: MVNTMKTKLLCVLLLCGAVFSLPRQETYRQLARGSRAYGVACKDEITQMTYRRQESWLRPEVRSKRVEHCQCDRGQARCHTVPVNSCSEPRCFNGGTCWQAVYFSDFVCQCPAGYTGKRCEVDTRATCYEGQGVTYRGTWSTAESRVECINWNSSLLTRRTYNGRMPDAFNLGLGNHNYCRNPNGAPKPWCYVIKAGKFTSESCSVPVCSKATCGLRKYKEPQLHSTGGLFTDITSHPWQAAIFAQNRRSSGERFLCGGILISSCWVLTAAHCFQESYLPDQLKVVLGRTYRVKPGEEEQTFKVKKYIVHKEFDDDTYNNDIALLQLKSDSPQCAQESDSVRAICLPEANLQLPDWTECELSGYGKHKSSSPFYSEQLKEGHVRLYPSSRCAPKFLFNKTVTNNMLCAGDTRSGEIYPNVHDACQGDSGGPLVCMNDNHMTLLGIISWGVGCGEKDVPGVYTKVTNYLGWIRDNMHL
In the case of B4, the “enzymatic_activity, percent_of_wt” value ([1]; glycan gained) is reported as “decreases”, the “other: thrombolytic efficacy in rats, other: total score” value ([9]; glycan gained) is reported as “decreases, 92.500 ± 1.049 vs 61.667 ± 1.966” and the “enzymatic_activity, kcat_Km” value ([5]; glycan gained) is reported as “decreases, 3257.040 ± 561.250 vs 5883.440 ± 983.570, The Kcat/Km of ANGlyα1 + 2 was 79% of rDSPAα1 when fibrin was used as a cofactor”. The “enzymatic_activity, kcat_Km” value ([6]; glycan gained) was “decreases, 248.960 ± 6.330 vs 282.240 ± 13.070”, the stability_or_folding ([2]; glycan gained) was “no change” and the “other: platelet count in rats, other: PLT” value [16] was “no change, 712.667 ± 16.010 vs 724.333 ± 50.817”. For the same protein, the “other: plasma D-dimer course in rats” value ([10]; glycan gained) was “changes”, the “other: plasma PAI concentration in rats” value ([10]; glycan gained) was “no change” and the “other: plasma α2-AP concentration in rats” value ([10]; glycan gained) was “decreases”. For the same protein, the “other: fibrin selectivity, other: ratio Fbn/Fbg” value ([7]; glycan gained) was “decreases, 13.100 vs 20.800”, the “other: thrombolytic efficacy in rats, other: recanalized rats” value ([11]; glycan gained) was “decreases, 3/8 vs 4/8” and the “other: plasminogen activation in rats” value ([12]; glycan gained) was “decreases”. For the same protein, the “other: plasma FDP rise in rats” value ([13]; glycan gained) was “increases”, the stability_or_folding ([3]; glycan gained) was “no change” and the “other: thrombolytic efficacy in rats” value ([14]; glycan gained) was “decreases”. The “expression_or_secretion, percent_of_wt” value ([4]; glycan gained) was “no change” and the “other: bleeding time in rats” value ([15]; glycan gained) was “no change”.

B5: DSPAα1: QNGlyα1-2 (protein)
parent chain: MVNTMKTKLLCVLLLCGAVFSLPRQETYRQLARGSRAYGVACKDEITQMTYRRQESWLRPEVRSKRVEHCQCDRGQARCHTVPVNSCSEPRCFNGGTCWQAVYFSDFVCQCPAGYTGKRCEVDTRATCYEGQGVTYRGTWSTAESRVECINWNSSLLTRRTYNGRMPDAFNLGLGNHNYCRNPNGAPKPWCYVIKAGKFTSESCSVPVCSKATCGLRKYKEPQLHSTGGLFTDITSHPWQAAIFAQNRRSSGERFLCGGILISSCWVLTAAHCFQESYLPDQLKVVLGRTYRVKPGEEEQTFKVKKYIVHKEFDDDTYNNDIALLQLKSDSPQCAQESDSVRAICLPEANLQLPDWTECELSGYGKHKSSSPFYSEQLKEGHVRLYPSSRCAPKFLFNKTVTNNMLCAGDTRSGEIYPNVHDACQGDSGGPLVCMNDNHMTLLGIISWGVGCGEKDVPGVYTKVTNYLGWIRDNMHL
For B5, the “enzymatic_activity, percent_of_wt” value ([1]; glycan lost) was “decreases”, the stability_or_folding ([2]; glycan lost) was “no change” and the “other: fibrin selectivity, other: ratio Fbn/Fbg” value ([7]; glycan lost) was “decreases, 8.500 vs 20.800”. The stability_or_folding ([3]; glycan lost) was “no change” and the “expression_or_secretion, percent_of_wt” value ([4]; glycan lost) was “decreases”.
